This is an account of results in publication PMC9482650, “Quantitative fragmentomics allow affinity mapping of interactomes” (Nature Communications, 2022).

To fix the notation:
T1: SNTG1, Q9NSN8
T1 sequence (Q9NSN8 52-150, limits assumed, looked up): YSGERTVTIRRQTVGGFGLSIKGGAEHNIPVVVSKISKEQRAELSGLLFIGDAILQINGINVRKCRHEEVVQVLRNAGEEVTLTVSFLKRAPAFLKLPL

T2: DFNB31_1, Q9P202
T2 sequence (Q9P202 135-233, limits assumed, looked up): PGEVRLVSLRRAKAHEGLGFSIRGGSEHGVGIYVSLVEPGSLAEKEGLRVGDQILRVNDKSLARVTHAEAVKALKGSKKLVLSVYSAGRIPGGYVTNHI

T3: DFNB31_3, Q9P202
T3 sequence (Q9P202 811-907, limits assumed, looked up): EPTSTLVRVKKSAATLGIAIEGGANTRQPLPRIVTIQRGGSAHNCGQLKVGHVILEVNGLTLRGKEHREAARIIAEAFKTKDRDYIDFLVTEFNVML

T4: PDZD7_3, Q9H5P4
T4 sequence (Q9H5P4 857-944, limits assumed, looked up): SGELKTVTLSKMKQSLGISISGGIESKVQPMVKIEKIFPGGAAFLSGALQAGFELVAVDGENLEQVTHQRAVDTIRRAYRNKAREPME

T5: TJP3_3, O95049
T5 sequence (O95049 375-456, limits assumed, looked up): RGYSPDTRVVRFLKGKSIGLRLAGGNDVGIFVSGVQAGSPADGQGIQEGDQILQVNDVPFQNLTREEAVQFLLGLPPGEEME

T6: SIPA1L2, Q9P2F8
T6 sequence (Q9P2F8 945-1036, limits assumed, looked up): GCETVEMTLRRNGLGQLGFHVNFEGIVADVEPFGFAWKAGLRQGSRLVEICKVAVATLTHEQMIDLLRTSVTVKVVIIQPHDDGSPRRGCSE

T7: SNTA1, Q13424
T7 sequence (Q13424 82-180, limits assumed, looked up): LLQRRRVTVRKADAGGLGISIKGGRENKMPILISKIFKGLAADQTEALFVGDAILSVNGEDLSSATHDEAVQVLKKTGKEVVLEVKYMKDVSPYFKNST

T8: CARD11, Q9BXL7
T8 sequence (Q9BXL7 662-765, limits assumed, looked up): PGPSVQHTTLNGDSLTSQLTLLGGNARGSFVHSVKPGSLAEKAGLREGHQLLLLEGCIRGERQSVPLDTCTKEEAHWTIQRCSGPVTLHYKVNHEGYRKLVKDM

T9: APBA2_2, Q99767
T9 sequence (Q99767 654-744, limits assumed, looked up): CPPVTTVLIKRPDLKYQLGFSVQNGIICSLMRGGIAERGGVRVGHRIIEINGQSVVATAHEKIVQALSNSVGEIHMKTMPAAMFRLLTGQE

T10: FRMPD1, Q5SYB0
T10 sequence (Q5SYB0 52-145, limits assumed, looked up): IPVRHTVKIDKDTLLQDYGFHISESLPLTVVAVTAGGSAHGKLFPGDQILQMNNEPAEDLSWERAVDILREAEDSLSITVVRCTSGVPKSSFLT

T11: ARHGAP21, Q5T5U3
T11 sequence (Q5T5U3 45-169, limits assumed, looked up): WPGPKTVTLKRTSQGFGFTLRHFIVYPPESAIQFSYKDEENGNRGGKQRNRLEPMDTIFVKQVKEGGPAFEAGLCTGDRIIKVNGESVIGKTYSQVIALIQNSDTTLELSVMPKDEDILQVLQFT

T12: PARD3B_1, Q8TEW8
T12 sequence (Q8TEW8 196-299, limits assumed, looked up): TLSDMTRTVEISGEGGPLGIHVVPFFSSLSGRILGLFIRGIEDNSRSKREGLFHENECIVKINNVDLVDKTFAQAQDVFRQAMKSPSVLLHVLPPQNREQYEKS

T13: HTRA3, P83110
T13 sequence (P83110 354-453, limits assumed, looked up): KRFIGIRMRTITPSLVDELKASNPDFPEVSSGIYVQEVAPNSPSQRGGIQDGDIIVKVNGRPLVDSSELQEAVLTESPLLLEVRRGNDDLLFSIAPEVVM

B1: CDK18, Q07002 (peptide)
chain: RGKNRRQSIF
B2: WWTR1, Q9GZV5 (peptide)
chain: NKSEPFLTWL

Chain of PARD3_3, Q8TEW0 (Q8TEW0 582-685): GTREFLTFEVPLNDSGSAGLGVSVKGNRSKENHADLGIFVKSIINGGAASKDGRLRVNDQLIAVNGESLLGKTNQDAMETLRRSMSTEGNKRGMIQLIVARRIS
Chain of TJP1_2, Q07157 (Q07157 181-274): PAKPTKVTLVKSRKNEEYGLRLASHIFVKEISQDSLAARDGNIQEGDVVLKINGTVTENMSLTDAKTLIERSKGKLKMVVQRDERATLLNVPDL
Chain of TJP2_1, Q9UDY2 (Q9UDY2 24-128): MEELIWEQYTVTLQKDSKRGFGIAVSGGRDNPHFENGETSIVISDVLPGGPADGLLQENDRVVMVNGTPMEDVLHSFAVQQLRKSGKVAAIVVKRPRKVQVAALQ
Chain of MAGI1_2, Q96QZ7 (Q96QZ7 456-580): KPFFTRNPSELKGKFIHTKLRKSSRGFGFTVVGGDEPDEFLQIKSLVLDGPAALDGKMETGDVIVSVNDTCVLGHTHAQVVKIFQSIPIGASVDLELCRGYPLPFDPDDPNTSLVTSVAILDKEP

The first assay concerns the target T1, SNTG1, Q9NSN8. Description: holdup assay. Also noted: key: below the threshold = too weak to quantify, mostly under pKd 3.1 to 4. As to conditions: plain residues with an end cap or a label only (N-terminal biotin on a linker: ado-ado).
For orientation: pKd means the Kd on a negative log10 scale, so that one unit is a factor of ten. Turning to B1, the pKd entry was “below the threshold”.

B2: the pKd entry is “below the threshold”.

Another assay has as its target T2, DFNB31_1, Q9P202. The assay is described as follows: holdup assay. Also noted: key: below the threshold = too weak to quantify, mostly under pKd 3.1 to 4. Particulars: plain residues with an end cap or a label only (N-terminal biotin on a linker: ado-ado).
Turning to B1, the pKd entry is on record as “below the threshold”.

The molecule B2 yielded a pKd of 3.85.

A further assay deals with T3, DFNB31_3, Q9P202. Description: holdup assay. Particulars: plain residues with an end cap or a label only (N-terminal biotin on a linker: ado-ado). Also noted: key: below the threshold = too weak to quantify, mostly under pKd 3.1 to 4.
The molecule B1 returned a pKd of 3.65.

In turn, B2 gave a pKd of 5.34.

The target of the next assay is T4, PDZD7_3, Q9H5P4. Description: holdup assay. Also noted: key: below the threshold = too weak to quantify, mostly under pKd 3.1 to 4. As to conditions: plain residues with an end cap or a label only (N-terminal biotin on a linker: ado-ado).
With B1, the negative logarithm of the Kd (pKd) entry was “below the threshold”.

As for B2, the negative logarithm of the Kd (pKd) was determined as 5.12.

The target in the next assay is T5, TJP3_3, O95049. Description: holdup assay. Details: key: below the threshold = too weak to quantify, mostly under pKd 3.1 to 4. As to conditions: plain residues with an end cap or a label only (N-terminal biotin on a linker: ado-ado).
For the molecule B1, the pKd entry is “below the threshold”.

Take B2: the pKd is 4.15.

The next assay addresses T6, SIPA1L2, Q9P2F8. The assay is described as follows: holdup assay. As to conditions: plain residues with an end cap or a label only (N-terminal biotin on a linker: ado-ado). Also noted: key: below the threshold = too weak to quantify, mostly under pKd 3.1 to 4.
With B1, the negative logarithm of the Kd (pKd) entry is “below the threshold”.

Take B2: the negative logarithm of the Kd (pKd) entry is “below the threshold”.

The target of a further assay is SCRIB_1, Q14160. The assay is described as follows: holdup assay. As to conditions: plain residues with an end cap or a label only (N-terminal biotin on a linker: ado-ado). Also noted: key: below the threshold = too weak to quantify, mostly under pKd 3.1 to 4.
Chain of SCRIB_1, Q14160 (Q14160 718-814): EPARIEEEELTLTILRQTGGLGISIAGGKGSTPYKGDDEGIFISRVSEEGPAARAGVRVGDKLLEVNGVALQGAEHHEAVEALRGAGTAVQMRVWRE
For the molecule B1, the negative logarithm of the Kd (pKd) entry is recorded as “below the threshold”.

In the case of B2, the pKd came to 4.63.

For a further assay, the target named is T7, SNTA1, Q13424. The assay is described as follows: holdup assay. Particulars: plain residues with an end cap or a label only (N-terminal biotin on a linker: ado-ado). Also noted: key: below the threshold = too weak to quantify, mostly under pKd 3.1 to 4.
For B1, the negative logarithm of the Kd (pKd) entry is “below the threshold”.

In the case of B2, the negative-log Kd (pKd) entry is recorded as “below the threshold”.

Another assay has as its target T8, CARD11, Q9BXL7. The assay is described as follows: holdup assay. As to conditions: plain residues with an end cap or a label only (N-terminal biotin on a linker: ado-ado). Also noted: key: below the threshold = too weak to quantify, mostly under pKd 3.1 to 4.
With B1, the negative-log Kd (pKd) result is given as “below the threshold”.

Turning to B2, the pKd result is “below the threshold”.

The next assay deals with GRIP2_7, Q9C0E4. Description: holdup assay. Also noted: key: below the threshold = too weak to quantify, mostly under pKd 3.1 to 4. As to conditions: plain residues with an end cap or a label only (N-terminal biotin on a linker: ado-ado).
Chain of GRIP2_7, Q9C0E4 (Q9C0E4 934-1023): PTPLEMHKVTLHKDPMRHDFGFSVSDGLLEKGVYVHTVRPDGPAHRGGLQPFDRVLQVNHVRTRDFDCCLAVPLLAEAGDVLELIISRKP
Consider B1, for which the negative-log Kd (pKd) entry is reported as “below the threshold”.

For the molecule B2, the negative logarithm of the Kd (pKd) was 4.21.

The target in another assay is T9, APBA2_2, Q99767. The assay is described as follows: holdup assay. Also noted: key: below the threshold = too weak to quantify, mostly under pKd 3.1 to 4. As to conditions: plain residues with an end cap or a label only (N-terminal biotin on a linker: ado-ado).
In turn, B1 displayed a negative-log Kd (pKd) of 3.5.

For the molecule B2, the negative logarithm of the Kd (pKd) entry is “below the threshold”.

A further assay deals with T10, FRMPD1, Q5SYB0. The assay is described as follows: holdup assay. Details: key: below the threshold = too weak to quantify, mostly under pKd 3.1 to 4. Particulars: plain residues with an end cap or a label only (N-terminal biotin on a linker: ado-ado).
Turning to B1, the negative-log Kd (pKd) result was “below the threshold”.

As for B2, the pKd entry is reported as “below the threshold”.

Another assay addresses T11, ARHGAP21, Q5T5U3. Description: holdup assay. Also noted: key: below the threshold = too weak to quantify, mostly under pKd 3.1 to 4. As to conditions: plain residues with an end cap or a label only (N-terminal biotin on a linker: ado-ado).
Take B1: the negative logarithm of the Kd (pKd) entry is listed as “below the threshold”.

B2 displayed a pKd of 4.88.

Another assay concerns the target TJP2_1, Q9UDY2. Description: holdup assay. Details: key: below the threshold = too weak to quantify, mostly under pKd 3.1 to 4. Particulars: plain residues with an end cap or a label only (N-terminal biotin on a linker: ado-ado).
B1 yielded a negative logarithm of the Kd (pKd) of 3.47.

B2: the pKd turned out to be 5.59.

In the next assay the target is GORASP1, Q9BQQ3. The assay is described as follows: holdup assay. Details: key: below the threshold = too weak to quantify, mostly under pKd 3.1 to 4. Particulars: plain residues with an end cap or a label only (N-terminal biotin on a linker: ado-ado).
Chain of GORASP1, Q9BQQ3 (Q9BQQ3 1-208): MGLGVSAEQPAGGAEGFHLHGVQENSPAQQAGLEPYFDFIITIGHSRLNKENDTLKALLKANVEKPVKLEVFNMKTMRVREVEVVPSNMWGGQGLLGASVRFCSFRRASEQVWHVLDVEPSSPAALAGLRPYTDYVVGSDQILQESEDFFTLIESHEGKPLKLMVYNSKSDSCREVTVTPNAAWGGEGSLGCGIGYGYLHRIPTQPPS
B1: the negative logarithm of the Kd (pKd) entry is on record as “below the threshold”.

B2 had a pKd of 5.

The next assay addresses PARD3_3, Q8TEW0. Description: holdup assay. Details: key: below the threshold = too weak to quantify, mostly under pKd 3.1 to 4. Particulars: plain residues with an end cap or a label only (N-terminal biotin on a linker: ado-ado).
With B1, the negative logarithm of the Kd (pKd) result is recorded as “below the threshold”.

B2 showed a pKd of 4.78.

The next assay deals with NHERF4_2, Q86UT5. Description: holdup assay. Also noted: key: below the threshold = too weak to quantify, mostly under pKd 3.1 to 4. As to conditions: plain residues with an end cap or a label only (N-terminal biotin on a linker: ado-ado).
Chain of NHERF4_2, Q86UT5 (Q86UT5 220-308): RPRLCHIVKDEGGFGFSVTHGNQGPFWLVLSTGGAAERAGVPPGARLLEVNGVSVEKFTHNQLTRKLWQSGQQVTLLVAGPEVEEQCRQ
For B1, the pKd result is “below the threshold”.

For B2, the pKd entry is “below the threshold”.

For another assay, the target named is GRIP2_3, Q9C0E4. The assay is described as follows: holdup assay. Also noted: key: below the threshold = too weak to quantify, mostly under pKd 3.1 to 4. As to conditions: plain residues with an end cap or a label only (N-terminal biotin on a linker: ado-ado).
Chain of GRIP2_3, Q9C0E4 (Q9C0E4 238-339): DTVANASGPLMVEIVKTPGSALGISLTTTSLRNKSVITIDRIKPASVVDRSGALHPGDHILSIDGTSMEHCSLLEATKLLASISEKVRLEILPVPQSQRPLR
With B1, the pKd result was “below the threshold”.

Consider B2, for which the negative-log Kd (pKd) entry was “below the threshold”.

The target in another assay is T12, PARD3B_1, Q8TEW8. The assay is described as follows: holdup assay. Details: key: below the threshold = too weak to quantify, mostly under pKd 3.1 to 4. Particulars: plain residues with an end cap or a label only (N-terminal biotin on a linker: ado-ado).
B1 yielded a pKd of 3.89.

As for B2, the pKd stood at 4.57.

The next assay has as its target MAGI1_2, Q96QZ7. The assay is described as follows: holdup assay. Also noted: key: below the threshold = too weak to quantify, mostly under pKd 3.1 to 4. As to conditions: plain residues with an end cap or a label only (N-terminal biotin on a linker: ado-ado).
In turn, B1 had a pKd of 3.91.

The molecule B2 displayed a pKd of 3.51.

Another assay concerns the target TJP1_2, Q07157. The assay is described as follows: holdup assay. Also noted: key: below the threshold = too weak to quantify, mostly under pKd 3.1 to 4. As to conditions: plain residues with an end cap or a label only (N-terminal biotin on a linker: ado-ado).
For B1, the pKd entry is listed as “below the threshold”.

As for B2, the pKd result was “below the threshold”.

The target in the next assay is T13, HTRA3, P83110. Description: holdup assay. Details: key: below the threshold = too weak to quantify, mostly under pKd 3.1 to 4. As to conditions: plain residues with an end cap or a label only (N-terminal biotin on a linker: ado-ado).
On to B1, for which the pKd entry is “below the threshold”.

On to B2, for which the pKd worked out at 5.43.

A further assay deals with LIMK2, P53671. The assay is described as follows: holdup assay. Also noted: key: below the threshold = too weak to quantify, mostly under pKd 3.1 to 4. Particulars: plain residues with an end cap or a label only (N-terminal biotin on a linker: ado-ado).
Chain of LIMK2, P53671 (P53671 143-248): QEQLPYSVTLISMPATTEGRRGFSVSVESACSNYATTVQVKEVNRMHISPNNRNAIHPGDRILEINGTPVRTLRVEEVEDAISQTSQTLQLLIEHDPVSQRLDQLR
Regarding B1, the negative logarithm of the Kd (pKd) entry is “below the threshold”.

Turning to B2, the negative-log Kd (pKd) result is “below the threshold”.

In another assay the target is SCRIB_3, Q14160. The assay is described as follows: holdup assay. Also noted: key: below the threshold = too weak to quantify, mostly under pKd 3.1 to 4. As to conditions: plain residues with an end cap or a label only (N-terminal biotin on a linker: ado-ado).
Chain of SCRIB_3, Q14160 (Q14160 999-1103): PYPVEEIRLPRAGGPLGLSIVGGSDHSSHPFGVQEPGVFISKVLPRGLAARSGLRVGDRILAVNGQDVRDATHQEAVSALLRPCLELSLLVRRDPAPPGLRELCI
Molecule B1 returned a negative logarithm of the Kd (pKd) of 3.65.

The molecule B2 yielded a negative-log Kd (pKd) of 5.14.
